Test results published in patent publication US20150259666.

Target: Human PAI-1 (plasminogen activator inhibitor-1), P05121
Sequence (P05121 whole entry, looked up): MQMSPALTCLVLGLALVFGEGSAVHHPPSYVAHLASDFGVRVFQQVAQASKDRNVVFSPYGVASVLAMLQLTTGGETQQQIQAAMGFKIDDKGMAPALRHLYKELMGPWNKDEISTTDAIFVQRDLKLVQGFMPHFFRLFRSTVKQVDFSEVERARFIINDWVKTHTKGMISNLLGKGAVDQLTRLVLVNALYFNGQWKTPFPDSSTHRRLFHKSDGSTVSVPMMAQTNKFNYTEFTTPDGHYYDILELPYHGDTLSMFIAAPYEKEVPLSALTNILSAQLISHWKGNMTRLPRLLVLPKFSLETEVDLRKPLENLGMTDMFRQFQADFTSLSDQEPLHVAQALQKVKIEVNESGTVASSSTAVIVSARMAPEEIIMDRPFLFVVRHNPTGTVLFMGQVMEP

B1: full length t-PA (native human tissue plasminogen activator) (protein)
chain: SYQVICRDEKTQMIYQQHQSWLRPVLRSNRVEYCWCNSGRAQCHSVPVKSCSEPRCFNGGTCQQALYFSDFVCQCPEGFAGKCCEIDTRATCYEDQGISYRGTWSTAESGAECTNWNSSALAQKPYSGRRPDAIRLGLGNHNYCRNPDRDSKPWCYVFKAGKYSSEFCSTPACSEGNSDCYFGNGSAYRGTHSLTESGASCLPWNSMILIGKVYTAQNPSAQALGLGKHNYCRNPDGDAKPWCHVLKNRRLTWEYCDVPSCSTCGLRQYSQPQFRIKGGLFADIASHPWQAAIFAKHRRSPGERFLCGGILISSCWILSAAHCFQERFPPHHLTVILGRTYRVVPGEEEQKFEVEKYIVHKEFDDDTYDNDIALLQLKSDSSRCAQESSVVRTVCLPPADLQLPDWTECELSGYGKHEALSPFYSERLKEAHVRLYPSSRCTSQHLLNRTVTDNMLCAGDTRSGGPQANLHDACQGDSGGPLVCLNDGRMTLVGIISWGLGCGQKDVPGVYTKVTNYLDWIRDNMRP
residual enzyme activity after 1 hour incubation with PAI-1 (PAI-1 resistance): Full length t-PA preserve the enzyme activity up to 54%
